Legend:
[1] = molecular target: elastase from porcine pancreas (porcine) (UniProt P00772)
[2] = molecular target: Cathepsin G from human leukocytes (human) (UniProt P08311)
[3] = molecular target: α-chymotrypsin from bovine pancreas (bovine)

UniProt P00772, sequence (P00772 27-266): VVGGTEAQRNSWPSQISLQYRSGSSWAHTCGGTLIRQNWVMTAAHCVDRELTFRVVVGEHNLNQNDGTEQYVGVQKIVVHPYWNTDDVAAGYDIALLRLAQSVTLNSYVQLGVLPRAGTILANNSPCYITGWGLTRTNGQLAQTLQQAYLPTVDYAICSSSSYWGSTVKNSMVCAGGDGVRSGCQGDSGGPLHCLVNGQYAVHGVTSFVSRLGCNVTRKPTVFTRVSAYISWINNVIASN
UniProt P08311, sequence (P08311 21-244): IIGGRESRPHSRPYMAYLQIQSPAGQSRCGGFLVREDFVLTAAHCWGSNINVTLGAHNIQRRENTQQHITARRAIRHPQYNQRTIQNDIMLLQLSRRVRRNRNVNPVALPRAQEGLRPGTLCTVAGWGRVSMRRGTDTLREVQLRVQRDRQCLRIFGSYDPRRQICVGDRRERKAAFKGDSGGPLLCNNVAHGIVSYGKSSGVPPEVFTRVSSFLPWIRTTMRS

E. coli expressed Hyalomma anatolicum serpin-1 (eHAMpin-1) (natural protein)
decrease of the proteolytic activity of the protease (100 nM) after preincubation with 1 μM eHAMpin-1 for 30 min at 37 °C; chromogenic substrate [1]: > 45%
decrease of the proteolytic activity of the protease (110 nM) after preincubation with 1 μM eHAMpin-1 for 30 min at 37 °C; chromogenic substrate [2]: > 90%
decrease of the proteolytic activity of the protease (96 nM) after preincubation with 1 μM eHAMpin-1 for 30 min at 37 °C; chromogenic substrate [3]: > 90%

— publication PMC11417211
